# Target: T1, FcγRIa (human, UniProt P12314 16-292)
# T1 construct: extracellular domain; also called FcgRI; FcgRIa; not shown: His tag attached to the C terminus
# Assay: SPR (Biacore), relative binding; control HeCon Ab GpH7-A5/GpH7-B3/GpL16-k0
# T1 sequence (P12314 16-292): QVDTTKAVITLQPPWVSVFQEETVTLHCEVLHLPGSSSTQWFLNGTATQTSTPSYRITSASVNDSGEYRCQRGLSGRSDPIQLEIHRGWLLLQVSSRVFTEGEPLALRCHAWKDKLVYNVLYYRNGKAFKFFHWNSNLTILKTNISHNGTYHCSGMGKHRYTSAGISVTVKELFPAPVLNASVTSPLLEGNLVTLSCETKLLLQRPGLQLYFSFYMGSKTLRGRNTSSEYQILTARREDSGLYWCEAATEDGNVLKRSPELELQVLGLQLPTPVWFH
row,Binder,He/Con_1a
1,"GpH7-A5/GpH7-B3 variant P271_18N/GpL16-k0 (antibody, human IgG1, kappa, Alteration in one H chain only; also called He Ab P271_18N) heavy 1: not shown heavy 2: not shown light: DIVMTQSPLSLPVTPGEPASISCQASESLVHSNRNTYLHWYLQKPGQSPQLLIYKVSNRFSGVPDRFSGSGSGTDFTLKISRVEAEDVGVYYCSQNTHVPPTFGQGTKVEIERTVAAPSVFIFPPSDEQLKSGTASVVCLLNNFYPREAKVQWKVDNALQSGNSQESVTEQDSKDSTYSLSSTLTLSKADYEKHKVYACEVTHQGLSSPVTKSFNRGEC",103 % of control (=100)
2,"GpH7-A5/GpH7-B3 variant K334_05P/GpL16-k0 (antibody, human IgG1, kappa, Alteration in one H chain only; also called He Ab K334_05P) heavy 1: not shown heavy 2: not shown light: DIVMTQSPLSLPVTPGEPASISCQASESLVHSNRNTYLHWYLQKPGQSPQLLIYKVSNRFSGVPDRFSGSGSGTDFTLKISRVEAEDVGVYYCSQNTHVPPTFGQGTKVEIERTVAAPSVFIFPPSDEQLKSGTASVVCLLNNFYPREAKVQWKVDNALQSGNSQESVTEQDSKDSTYSLSSTLTLSKADYEKHKVYACEVTHQGLSSPVTKSFNRGEC",104 % of control (=100)
3,"GpH7-A5/GpH7-B3 variant K334_18N/GpL16-k0 (antibody, human IgG1, kappa, Alteration in one H chain only; also called He Ab K334_18N) heavy 1: not shown heavy 2: not shown light: DIVMTQSPLSLPVTPGEPASISCQASESLVHSNRNTYLHWYLQKPGQSPQLLIYKVSNRFSGVPDRFSGSGSGTDFTLKISRVEAEDVGVYYCSQNTHVPPTFGQGTKVEIERTVAAPSVFIFPPSDEQLKSGTASVVCLLNNFYPREAKVQWKVDNALQSGNSQESVTEQDSKDSTYSLSSTLTLSKADYEKHKVYACEVTHQGLSSPVTKSFNRGEC",105 % of control (=100)
4,"GpH7-A5/GpH7-B3 variant S239_10E/GpL16-k0 (antibody, human IgG1, kappa, Alteration in one H chain only; also called He Ab S239_10E) heavy 1: not shown heavy 2: not shown light: DIVMTQSPLSLPVTPGEPASISCQASESLVHSNRNTYLHWYLQKPGQSPQLLIYKVSNRFSGVPDRFSGSGSGTDFTLKISRVEAEDVGVYYCSQNTHVPPTFGQGTKVEIERTVAAPSVFIFPPSDEQLKSGTASVVCLLNNFYPREAKVQWKVDNALQSGNSQESVTEQDSKDSTYSLSSTLTLSKADYEKHKVYACEVTHQGLSSPVTKSFNRGEC",105 % of control (=100)
5,"GpH7-A5/GpH7-B3 variant P271_08L/GpL16-k0 (antibody, human IgG1, kappa, Alteration in one H chain only; also called He Ab P271_08L) heavy 1: not shown heavy 2: not shown light: DIVMTQSPLSLPVTPGEPASISCQASESLVHSNRNTYLHWYLQKPGQSPQLLIYKVSNRFSGVPDRFSGSGSGTDFTLKISRVEAEDVGVYYCSQNTHVPPTFGQGTKVEIERTVAAPSVFIFPPSDEQLKSGTASVVCLLNNFYPREAKVQWKVDNALQSGNSQESVTEQDSKDSTYSLSSTLTLSKADYEKHKVYACEVTHQGLSSPVTKSFNRGEC",102 % of control (=100)
6,"GpH7-A5/GpH7-B3 variant K334_15Y/GpL16-k0 (antibody, human IgG1, kappa, Alteration in one H chain only; also called He Ab K334_15Y) heavy 1: not shown heavy 2: not shown light: DIVMTQSPLSLPVTPGEPASISCQASESLVHSNRNTYLHWYLQKPGQSPQLLIYKVSNRFSGVPDRFSGSGSGTDFTLKISRVEAEDVGVYYCSQNTHVPPTFGQGTKVEIERTVAAPSVFIFPPSDEQLKSGTASVVCLLNNFYPREAKVQWKVDNALQSGNSQESVTEQDSKDSTYSLSSTLTLSKADYEKHKVYACEVTHQGLSSPVTKSFNRGEC",105 % of control (=100)

# More lines, now with the values ahead:
row,He/Con_1a,Binder
1,105 % of control (=100),"GpH7-A5/GpH7-B3 variant K334_04F/GpL16-k0 (antibody, human IgG1, kappa, Alteration in one H chain only; also called He Ab K334_04F) heavy 1: not shown heavy 2: not shown light: DIVMTQSPLSLPVTPGEPASISCQASESLVHSNRNTYLHWYLQKPGQSPQLLIYKVSNRFSGVPDRFSGSGSGTDFTLKISRVEAEDVGVYYCSQNTHVPPTFGQGTKVEIERTVAAPSVFIFPPSDEQLKSGTASVVCLLNNFYPREAKVQWKVDNALQSGNSQESVTEQDSKDSTYSLSSTLTLSKADYEKHKVYACEVTHQGLSSPVTKSFNRGEC"
2,103 % of control (=100),"GpH7-A5/GpH7-B3 variant Q295_10E/GpL16-k0 (antibody, human IgG1, kappa, Alteration in one H chain only; also called He Ab Q295_10E) heavy 1: not shown heavy 2: not shown light: DIVMTQSPLSLPVTPGEPASISCQASESLVHSNRNTYLHWYLQKPGQSPQLLIYKVSNRFSGVPDRFSGSGSGTDFTLKISRVEAEDVGVYYCSQNTHVPPTFGQGTKVEIERTVAAPSVFIFPPSDEQLKSGTASVVCLLNNFYPREAKVQWKVDNALQSGNSQESVTEQDSKDSTYSLSSTLTLSKADYEKHKVYACEVTHQGLSSPVTKSFNRGEC"
3,106 % of control (=100),"GpH7-A5/GpH7-B3 variant K334_09D/GpL16-k0 (antibody, human IgG1, kappa, Alteration in one H chain only; also called He Ab K334_09D) heavy 1: not shown heavy 2: not shown light: DIVMTQSPLSLPVTPGEPASISCQASESLVHSNRNTYLHWYLQKPGQSPQLLIYKVSNRFSGVPDRFSGSGSGTDFTLKISRVEAEDVGVYYCSQNTHVPPTFGQGTKVEIERTVAAPSVFIFPPSDEQLKSGTASVVCLLNNFYPREAKVQWKVDNALQSGNSQESVTEQDSKDSTYSLSSTLTLSKADYEKHKVYACEVTHQGLSSPVTKSFNRGEC"
4,105 % of control (=100),"GpH7-A5/GpH7-B3 variant K334_16H/GpL16-k0 (antibody, human IgG1, kappa, Alteration in one H chain only; also called He Ab K334_16H) heavy 1: not shown heavy 2: not shown light: DIVMTQSPLSLPVTPGEPASISCQASESLVHSNRNTYLHWYLQKPGQSPQLLIYKVSNRFSGVPDRFSGSGSGTDFTLKISRVEAEDVGVYYCSQNTHVPPTFGQGTKVEIERTVAAPSVFIFPPSDEQLKSGTASVVCLLNNFYPREAKVQWKVDNALQSGNSQESVTEQDSKDSTYSLSSTLTLSKADYEKHKVYACEVTHQGLSSPVTKSFNRGEC"
5,106 % of control (=100),"GpH7-A5/GpH7-B3 variant K334_19Q/GpL16-k0 (antibody, human IgG1, kappa, Alteration in one H chain only; also called He Ab K334_19Q) heavy 1: not shown heavy 2: not shown light: DIVMTQSPLSLPVTPGEPASISCQASESLVHSNRNTYLHWYLQKPGQSPQLLIYKVSNRFSGVPDRFSGSGSGTDFTLKISRVEAEDVGVYYCSQNTHVPPTFGQGTKVEIERTVAAPSVFIFPPSDEQLKSGTASVVCLLNNFYPREAKVQWKVDNALQSGNSQESVTEQDSKDSTYSLSSTLTLSKADYEKHKVYACEVTHQGLSSPVTKSFNRGEC"

# Reference: patent publication US20150344570A1 (published 2015)
